# Reference: patent US20230242675A1 (SHANGHAI EPIMAB BIOTHERAPEUTICS, published 2023)
# Positions count from the first letter of the chain named. Names may count otherwise.
# B1: HuEM0005-90-8 (antibody, human IgG1, V domains shown)
# VH: EVQLVQSGAEVKKPGASVKVSCKTSGYTFTSHSINWVRQATGQGLEWIGYMYIGNGYTEYNEKFKGRATLTSNTSISTAYMELSSLRSEDTAVYYCAKITPVVAPYVMDYWGQGTSVTVSS
# VL: DIQMTQSPSFLSASVGDRVTITCKASQDVGTAVAWYQQKPGKAPKLLIYWASTRHTGVPSRFSGSGSGTEFTLTISSLQPEDFATYYCQQYSSYPYTFGQGTKLEIK
# B2: HuEM0005-90-7 (antibody, human IgG1, V domains shown)
# VH: B1 VH with I48M, A68V, L70M
# VL: B1 VL
# B3: HuEM0005-90-11 (antibody, human IgG1, V domains shown)
# VH: B1 VH with I48M, A68V, L70M
# VL: B1 VL with Q3V, E70D
# B4: HuEM0005-90-10 (antibody, human IgG1, V domains shown)
# VH: B1 VH with T24A
# VL: B1 VL with Q3V, E70D
# B5: HuEM0005-90-12 (antibody, human IgG1, V domains shown)
# VH: B1 VH
# VL: B1 VL with Q3V, E70D
# B6: HuEM0005-90-9 (antibody, human IgG1, V domains shown)
# VH: B1 VH with T24A, I48M, A68V
# VL: B1 VL with Q3V, E70D
# B7: HuEM0005-87-11 (antibody, human IgG1, V domains shown)
# VH: EVQLVQSGAEVKKPGASVKVSCKASGYTFTDYYINWVRQAPGQGLEWMGETIPNTGGTTYNQKFKARVTMTVDTSTSTVYMELSSLRSEDTAVYYCARYQSGSPFAYWGQGTTVTVSS
# VL: EIVMTQSPATLSVSPGERATLSCKASQNVGTAVAWYQQKPGQAPRLLIYSASNRYTGVPARFSGSGSGTEFTLTISSLQSEDFAVYYCQQHYSTPYTFGGGTKLEIK
# notes: also called HuEM0005-87-l l
# B8: HuEM0005-87-12 (antibody, human IgG1, V domains shown)
# VH: B7 VH with M70L
# VL: B7 VL
# B9: HuEM0005-87-8 (antibody, human IgG1, V domains shown)
# VH: B7 VH with M48I, M70L, T74K
# VL: B7 VL with V58I
# B10: HuEM0005-87-7 (antibody, human IgG1, V domains shown)
# VH: B7 VH with M70L
# VL: B7 VL with V58I
# B11: HuEM0005-87-9 (antibody, human IgG1, V domains shown)
# VH: B7 VH with T28S, M48I, R67K, V68A, M70L, T74K, V79A
# VL: B7 VL with V58I
# B12: HuEM0005-87-10 (antibody, human IgG1, V domains shown)
# VH: B7 VH with T28S, R38K, M48I, R67K, V68A, M70L, V72R, T74K, V79A, S84K
# VL: B7 VL with V58I
# B13: HuEM0005-87-18 (antibody, human IgG1, V domains shown)
# VH: B7 VH with M48I, M70L, T74K
# VL: B7 VL with A60D, S63T
# B14: HuEM0005-87-13 (antibody, human IgG1, V domains shown)
# VH: B7 VH with M48I, M70L, T74K
# VL: B7 VL
# B15: HuEM0005-87-15 (antibody, human IgG1, V domains shown)
# VH: B7 VH with T28S, R38K, M48I, R67K, V68A, M70L, V72R, T74K, V79A, S84K
# VL: B7 VL
# B16: HuEM0005-87-16 (antibody, human IgG1, V domains shown)
# VH: B7 VH
# VL: B7 VL with A60D, S63T
# B17: HuEM0005-87-14 (antibody, human IgG1, V domains shown)
# VH: B7 VH with T28S, M48I, R67K, V68A, M70L, T74K, V79A
# VL: B7 VL
# B18: HuEM0005-87-17 (antibody, human IgG1, V domains shown)
# VH: B7 VH with M70L
# VL: B7 VL with A60D, S63T
# B19: HuEM0005-90-5 (antibody, human IgG1, V domains shown)
# VH: B1 VH with T24A, I48M, A68V
# VL: B1 VL
# B20: HuEM0005-90-3 (antibody, human IgG1, V domains shown)
# VH: B1 VH with I48M, A68V, L70M
# VL: B1 VL with M4L
# B21: HuEM0005-90-4 (antibody, human IgG1, V domains shown)
# VH: B1 VH
# VL: B1 VL with M4L
# B22: HuEM0005-90-2 (antibody, human IgG1, V domains shown)
# VH: B1 VH with T24A
# VL: B1 VL with M4L
# B23: HuEM0005-90-6 (antibody, human IgG1, V domains shown)
# VH: B1 VH with T24A
# VL: B1 VL
# B24: HuEM0005-90-1 (antibody, human IgG1, V domains shown)
# VH: B1 VH with T24A, I48M, A68V
# VL: B1 VL with M4L
# notes: measured without the G55A change
# B25: HuEM0005-87-1 (antibody, human IgG1, V domains shown)
# VH: B7 VH
# VL: DIVMTQSPDSLAVSLGERATINCKASQNVGTAVAWYQQKPGQPPKLLIYSASNRYTGVPDRFTGSGSGTDFTLTISSLQAEDVAVYYCQQHYSTPYTFGGGTKLEIK
# notes: also called HuEM0005-87-l
# B26: HuEM0005-87-5 (antibody, human IgG1, V domains shown)
# VH: B7 VH with T28S, R38K, M48I, R67K, V68A, M70L, V72R, T74K, V79A, S84K
# VL: B25 VL
# B27: HuEM0005-87-2 (antibody, human IgG1, V domains shown)
# VH: B7 VH with M70L
# VL: B25 VL
# B28: HuEM0005-87-4 (antibody, human IgG1, V domains shown)
# VH: B7 VH with T28S, M48I, R67K, V68A, M70L, T74K, V79A
# VL: B25 VL
# B29: HuEM0005-87-6 (antibody, human IgG1, V domains shown)
# VH: B7 VH
# VL: B7 VL with V58I
# B30: HuEM0005-87-3 (antibody, human IgG1, V domains shown)
# VH: B7 VH with M48I, M70L, T74K
# VL: B25 VL
# Biological target: T1, human PD-L1/His fusion protein (human, UniProt Q9NZQ7 19-239)
# Assay: BLI off-rate; test group 2
# Description: (§1) Briefly, antibodies were characterized for affinities and binding kinetics by Octet®RED96 biolayer interferometry (Pall ForteBio LLC). Antibodies were captured by Anti-hIgG Fc Capture (AHC) Biosensors (Pall) at a concentration of 100 nM for 30 seconds. Sensors were then dipped into running buffer (1×pH 7.2 PBS, 0.05% Tween 20, 0.1% BSA) for 60 seconds to check baseline. Binding was measured by dipping sensors into a single concentration of recombinant human PD-L1/His fusion protein (Novoprotein). Dissociation was followed by dipping sensors into running buffer for 1200 seconds. The association and dissociation curves were fitted to a 1:1 Langmuir binding model using ForteBio Data Analysis software (Pall). […] The off-rate ratio serves as a data normalization. Accordingly, in each test group, the off-rate ratios of the humanized antibodies can be compared with that of the chimeric antibody, and the off-rate ratios of each of the humanized antibodies can be compared to one another within all test groups.
# T1 sequence (Q9NZQ7 19-239 limits assumed): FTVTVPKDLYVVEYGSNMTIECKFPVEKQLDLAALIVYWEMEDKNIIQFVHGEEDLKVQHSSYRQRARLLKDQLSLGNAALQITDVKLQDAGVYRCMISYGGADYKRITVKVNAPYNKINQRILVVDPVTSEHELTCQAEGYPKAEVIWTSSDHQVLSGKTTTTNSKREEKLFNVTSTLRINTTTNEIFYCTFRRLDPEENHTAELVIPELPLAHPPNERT
Off-Rate Ratio to that of EM0005-90c [%],Off-Rate Ratio to that of EM0005-87c [%],Binder
102,–,B1
135,–,B2
121,–,B3
91,–,B4
100,–,B5
109,–,B6
–,74,B7
–,77,B8
–,81,B9
–,68,B10
–,84,B11
–,96,B12

# Biological target: T1, human PD-L1/His fusion protein
# Assay: BLI Octet RED96, antibody on AHC sensor, single conc. PD-L1/His; test group 3
# Description: as §1
row,koff [s⁻¹],Binder
1,0.00101,B13
2,0.001,B14
3,0.00129,B15
4,0.000932,B16
5,0.00108,B17
6,0.000888,B18

# Biological target: T1, human PD-L1/His fusion protein
# Assay: BLI off-rate; test group 1
# Description: as §1
Off-Rate Ratio to that of EM0005-90c [%],Off-Rate Ratio to that of EM0005-87c [%],Binder
107,–,B19
120,–,B20
97,–,B21
90,–,B22
100,–,B23
102,–,B24
–,64,B25
–,64,B26
–,54,B27
–,52,B28
–,68,B29
–,63,B30

# Biological target: T1, human PD-L1/His fusion protein
# Assay: BLI Octet RED96, antibody on AHC sensor, single conc. PD-L1/His; test group 1
# Description: as §1
row,koff [s⁻¹],Binder
1,0.00027,B19
2,0.000304,B20
3,0.000246,B21
4,0.000227,B22
5,0.000254,B23
6,0.000259,B24
7,0.000937,B25
8,0.000947,B26
9,0.000797,B27
10,0.000768,B28
11,0.000998,B29
12,0.000926,B30

# Biological target: T1, human PD-L1/His fusion protein
# Assay: BLI Octet RED96, antibody on AHC sensor, single conc. PD-L1/His; test group 2
# Description: as §1
row,koff [s⁻¹],Binder
1,0.000349,B1
2,0.00046,B2
3,0.000414,B3
4,0.00031,B4
5,0.000342,B5
6,0.000373,B6
7,0.000769,B7
8,0.000798,B8
9,0.000844,B9
10,0.000709,B10
11,0.000878,B11
12,0.000994,B12

# Biological target: T1, human PD-L1/His fusion protein
# Assay: BLI off-rate; test group 3
# Description: as §1
row,Off-Rate Ratio to that of EM0005-87c [%],Binder
1,75,B13
2,74,B14
3,96,B15
4,69,B16
5,80,B17
6,66,B18
